The source of these data is article PMC4575180 (2015).

The target of the test is T1, syntaxin3 (Rattus norvegicus (Rat), UniProt Q08849).
T1 chain: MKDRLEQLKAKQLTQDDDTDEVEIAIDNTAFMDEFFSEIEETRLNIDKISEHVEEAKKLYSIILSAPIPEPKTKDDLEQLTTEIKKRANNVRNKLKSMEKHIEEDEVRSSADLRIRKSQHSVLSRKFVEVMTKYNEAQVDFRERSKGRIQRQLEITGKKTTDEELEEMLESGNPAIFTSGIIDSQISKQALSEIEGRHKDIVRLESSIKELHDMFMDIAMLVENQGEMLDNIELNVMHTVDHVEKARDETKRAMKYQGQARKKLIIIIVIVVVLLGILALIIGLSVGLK
The test can be described thus: pull-down.

B1: Munc18c (protein)
chain: MAPPVSERGLKSVVWRKIKTAVFDDCRKEGEWKIMLLDEFTTKLLSSCCKMTDLLEEGITVIENIYKNREPVRQMKALYFISPTPKSVDCFLRDFGSKSEKKYKAAYIYFTDFCPDSLFNKIKASCSKSIRRCKEINISFIPQESQVYTLDVPDAFYYCYSPDPSNASRKEVVMEAMAEQIVTVCATLDENPGVRYKSKPLDNASKLAQLVEKKLEDYYKIDEKGLIKGKTQSQLLIIDRGFDPVSTVLHELTFQAMAYDLLPIENDTYKYKTDGKEKEAVLEEDDDLWVRVRHRHIAVVLEEIPKLMKEISSTKKATEGKTSLSALTQLMKKMPHFRKQISKQVVHLNLAEDCMNKFKLNIEKLCKTEQDLALGTDAEGQRVKDSMLVLLPVLLNKNHDNCDKIRAVLLYIFGINGTTEENLDRLIHNVKIEDDSDMIRNWSHLGVPIVPPSQQAKPLRKDRSAEETFQLSRWTPFIKDIMEDAIDNRLDSKEWPYCSRCPAVWNGSGAVSARQKPRTNYLELDRKNGSRLIIFVIGGITYSEMRCAYEVSQAHKSCEVIIGSTHILTPRKLLDDIKMLNKSKDKVSFKDE
Turning to B1, the binding result is given as “no binding”.
